Results from patent US20240124563A1 (NANJING ZAIMING PHARMACEUTICAL, published 2024).

T1: human MSLN-R3-3 polypeptide (purchased from GL Biochem, Cat. No. 406676) (human)
T1 construct: Printed as Val539-Val588; also called hMSLN-R3-3
T1 peptide: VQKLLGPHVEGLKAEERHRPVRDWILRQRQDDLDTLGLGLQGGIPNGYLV


Key:
[1] = molecular target: T2, human MSLN-R2-his protein (human, UniProt Q13421 391-486); assay: ELISA, antibody 0.01 nM
T2 construct: MSLN-R2 = Ser391-Asn486; also called hMSLN-R2-his; not shown: histidine tag

[2] = molecular target: T2, human MSLN-R2-his protein; assay: ELISA, antibody 0 nM (blank)
[3] = molecular target: T2, human MSLN-R2-his protein; assay: ELISA, antibody 100 nM
[4] = molecular target: T3, human MSLN-R3-his protein (human, UniProt Q13421 487-598); assay: ELISA, antibody 100 nM
T3 construct: MSLN-R3 = Met487-Ser598; also called hMSLN-R3-his; not shown: histidine tag

[5] = molecular target: T3, human MSLN-R3-his protein; assay: ELISA, antibody 0.01 nM
[6] = molecular target: T2, human MSLN-R2-his protein; assay: ELISA, antibody 0.001 nM
[7] = molecular target: T3, human MSLN-R3-his protein; assay: ELISA, antibody 0 nM (blank)
[8] = molecular target: T2, human MSLN-R2-his protein; assay: ELISA, antibody 0.0001 nM
[9] = molecular target: T1, human MSLN-R3-3 polypeptide (purchased …); assay: ELISA, antibody 1 nM
[10] = molecular target: T3, human MSLN-R3-his protein; assay: ELISA, antibody 1 nM
[11] = molecular target: T2, human MSLN-R2-his protein; assay: ELISA, antibody 1 nM
[12] = molecular target: T2, human MSLN-R2-his protein; assay: ELISA, antibody 10 nM
[13] = molecular target: T2, human MSLN-R2-his protein; assay: ELISA, antibody 1 nM; remark: listed apart in the source
[14] = molecular target: T3, human MSLN-R3-his protein; assay: ELISA, antibody 1 nM; remark: listed apart in the source
[15] = molecular target: T2, human MSLN-R2-his protein; assay: ELISA, antibody 0.1 nM
[16] = molecular target: T3, human MSLN-R3-his protein; assay: ELISA, antibody 0.1 nM
[17] = molecular target: T3, human MSLN-R3-his protein; assay: ELISA, antibody 0.0001 nM
[18] = molecular target: T3, human MSLN-R3-his protein; assay: ELISA, antibody 0.001 nM
[19] = molecular target: T3, human MSLN-R3-his protein; assay: ELISA, antibody 10 nM
[20] = molecular target: T4, human MSLN-R3-his protein (human, UniProt Q13421 487-598); assay: ELISA, coated antigen, 0.001 nM antibody
T4 construct: also called hMSLN-R3-his; not shown: histidine tag

[21] = molecular target: T4, human MSLN-R3-his protein; assay: ELISA, coated antigen, 1 nM antibody
[22] = molecular target: T4, human MSLN-R3-his protein; assay: ELISA, coated antigen, 0 nM antibody (blank)
[23] = molecular target: T4, human MSLN-R3-his protein; assay: ELISA, coated antigen, 0.01 nM antibody
[24] = molecular target: T5, human MSLN-R2-his protein (human, UniProt Q13421 391-486); assay: ELISA, coated antigen, 0.2 nM antibody
T5 construct: also called hMSLN-R2-his; not shown: histidine tag

[25] = molecular target: T4, human MSLN-R3-his protein; assay: ELISA, coated antigen, 0.2 nM antibody
[26] = molecular target: T4, human MSLN-R3-his protein; assay: ELISA, coated antigen, 0.1 nM antibody
[27] = molecular target: T5, human MSLN-R2-his protein; assay: ELISA, coated antigen, 20 nM antibody
[28] = molecular target: T4, human MSLN-R3-his protein; assay: ELISA, coated antigen, 20 nM antibody
[29] = molecular target: T4, human MSLN-R3-his protein; assay: ELISA, coated antigen, 100 nM antibody
[30] = molecular target: T4, human MSLN-R3-his protein; assay: ELISA, coated antigen, 10 nM antibody
[31] = molecular target: T4, human MSLN-R3-his protein; assay: ELISA, coated antigen, 0.0001 nM antibody
[32] = molecular target: T6, chimeric human MSLN-R3 / chicken MSLN-R1-2 protein on HEK293T cells (clone A5) (chicken; human); assay: FACS, HEK293T-hR3/chickR1-2-A5 cells, antibody 0.2 nM
T6 construct: range 327-514; Human R1-R2 replaced by chicken R1-R2; also called HEK293T-chickR1-2/hR3-A5; HEK293T-hR3/chickR1-2-A5
T6 sequence (Q13421 495-614, change not shown): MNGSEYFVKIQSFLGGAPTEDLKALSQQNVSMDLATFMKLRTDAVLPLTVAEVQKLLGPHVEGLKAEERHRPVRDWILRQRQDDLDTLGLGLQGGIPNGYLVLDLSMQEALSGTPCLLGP

[33] = molecular target: T6, chimeric human MSLN-R3 / chicken …; assay: FACS, HEK293T-hR3/chickR1-2-A5 cells, antibody 20 nM

Binder	OD450 nm [1]	OD450 nm [2]	OD450 nm [3]	OD450 nm [4]	OD450 nm [5]	OD450 nm [6]	OD450 nm [7]	OD450 nm [8]	OD450 nm [9]	OD450 nm [10]	OD450 nm [11]	OD450 nm [12]	OD450 nm [13]	OD450 nm [14]	OD450 nm [15]	OD450 nm [16]	OD450 nm [17]	OD450 nm [18]	OD450 nm [19]	other results
Tab020 (YP223, rabbitIgG1) (antibody, V domains shown, also called YP223 rabbit IgG1 antibody; rabbit anti-human MSLN antibody (Tab020)) VH: QEQLEESGGDLVQPEGSLTLTCKASGLDFSSSYWICWVRQAPGKGLEWIGCRHTFTANTWSASWVNGRFTISRSTSLGTVDLKMTSLTAADTATYFCARDESNNDGWDFKLWGPGTLVTVSS VL: AYDMTQTPASVSAAVGGTVTIKCQASQSISNYLAWYQQKPGQPPKLLIYQASTLAPGVSSRFKGSGSGTEFTLTISGVECADAATYYCQQGYTSSNVENVFGGGTGVVVGD	0.07	0.05	2.5	0.05	0.05	0.05	0.05	0.05	0.09	0.05	1.49	2.01	1.49	0.05	0.2	0.05	0.05	0.05	0.05	–
Tab106 (YP218, hIgG1) (antibody, V domains shown, also called YP218 human IgG1 antibody) VH: QQQLEESGGGLVKPEGSLTLTCKASGFDLGFYFYACWVRQAPGKGLEWIACIYTAGSGSTYYASWAKGRFTISKASSTTVTLQMTSLAAADTATYFCARSTANTRSTYYLNLWGPGTLVTVSS VL: DVVMTQTPASVSEPVGGTVTIKCQASQRISSYLSWYQQKPGQRPKLLIFGASTLASGVPSRFKGSGSGTEYTLTISDLECADAATYYCQSYAYFDSNNWHAFGGGTEVVVRT [Tab106 (YP218, hIgG1), listing 1 of 2 here]	–	–	–	–	–	–	–	–	–	–	–	–	–	–	–	–	–	–	–	OD450 nm [20]: 0.05 OD450 nm; OD450 nm [21]: 0.22 OD450 nm; OD450 nm [22]: 0.05 OD450 nm; OD450 nm [23]: 0.05 OD450 nm; OD450 nm [24]: 0.13 OD450 nm; OD450 nm [25]: 0.87 OD450 nm; OD450 nm [26]: 0.07 OD450 nm; OD450 nm [27]: 1.44 OD450 nm; OD450 nm [28]: 1.89 OD450 nm; OD450 nm [29]: 1.81 OD450 nm; OD450 nm [30]: 1.04 OD450 nm; OD450 nm [31]: 0.05 OD450 nm
Tab106 (YP218, hIgG1) (antibody, V domains shown, also called YP218 human IgG1 antibody; anti-human MSLN-R3 antibody (Tab106)) VH: QQQLEESGGGLVKPEGSLTLTCKASGFDLGFYFYACWVRQAPGKGLEWIACIYTAGSGSTYYASWAKGRFTISKASSTTVTLQMTSLAAADTATYFCARSTANTRSTYYLNLWGPGTLVTVSS VL: DVVMTQTPASVSEPVGGTVTIKCQASQRISSYLSWYQQKPGQRPKLLIFGASTLASGVPSRFKGSGSGTEYTLTISDLECADAATYYCQSYAYFDSNNWHAFGGGTEVVVRT	0.04	0.05	0.7	2.29	0.06	0.04	0.05	0.04	0.98	0.62	0.05	0.11	0.05	0.62	0.05	0.12	0.05	0.05	1.75	–
Tab106 (YP218, hIgG1) (antibody, V domains shown, also called YP218 human IgG1 antibody) VH: QQQLEESGGGLVKPEGSLTLTCKASGFDLGFYFYACWVRQAPGKGLEWIACIYTAGSGSTYYASWAKGRFTISKASSTTVTLQMTSLAAADTATYFCARSTANTRSTYYLNLWGPGTLVTVSS VL: DVVMTQTPASVSEPVGGTVTIKCQASQRISSYLSWYQQKPGQRPKLLIFGASTLASGVPSRFKGSGSGTEYTLTISDLECADAATYYCQSYAYFDSNNWHAFGGGTEVVVRT [Tab106 (YP218, hIgG1), listing 2 of 2 here]	–	–	–	–	–	–	–	–	–	–	–	–	–	–	–	–	–	–	–	MFI [32]: 767; MFI [33]: 17900
